From the DeepSol protein solubility set

Assay: soluble on expression in E. coli; label from the status in PepcDB or PDB records

MFPYFESVATASTEFHAIEPDPHMRRQAAEQANTQATPIHIESSPAEALPYYEDTFDVVITSMVFCTIPDIESAMSEITRVLKPGGELRFFEHVIDDGWRARLQSALAPLWKRLAGGCHLTRQTGTRLVADQSFDVVEIERLNLGITPIRPFVRGRLRKRSVSSTRLEHHHHHH
soluble on expression in E. coli: not soluble

MGSDKIHHHHHHANQKSEHDHVAKVPKSYLPSGSVMAKEASANLKLSEKLSLIDGQWDSTTDDAASYEMDEQDYQAVATCRKSIEKLYDEKLYPVNLSPDYSNWYTWEAAAKKASDNTFNTYTAYYWIIRFEKYDGTQNHTIWMLEDGTIIMAKAHMKDISDMSEYKEVLQADDESQAENDLSAYKGYFDYSGIDFSKLNLISETTAVEQKNNESYEVLQFLQENEYVYAIHEK
soluble on expression in E. coli: not soluble

MAHHHHHHMRPTCVCAVRAVRMYVPMRVAATGGATPSAASPAGDNASTSSEVRAARRITEAVLSARAKHKLQHRQPSPPTPVPPSVRAKAKAPRSPASDIEEGVVKDTVTVEVQTAARLALSYGKSAFMTHLVHQHDDAHQRPGTVSASEWDQPMVSDAGEPEASVMTASSETCAVLPLRARTPTIPRAAAGTPGLQMAIDKWWRDLTDEARVRWITSTPQGRRALQHATKLAKFRNVSCGQGRSSNSGAHVVPSMESMLTKYKNTLAQPRLPRAAALAPSPKESILRMKLQDEKGASVSPSSKPTTVSSALAGMMHAASENNANRRLLRDRADAVRREEQRKLWHQALVQFLGGASAFTFVHDVKDLQQPRTEAEQAVKREPGAQSGGGAGRATTVAPNTPAATATGNATPEEMADDGAPVAFSDGLLDMCEGLGIRSPRRAYVLSRVLPEVDAANASEGPPLSLAEVQDLAKKCSTEYDELRDDAMRTARETGSASAEDAVRAFEREQLALAVARVQKKLVMFQENLPLLKRCVNVLSK
soluble on expression in E. coli: not soluble

MSLSALFCQAAAVAVTISGFAFSPAQTTVQVGDVITWTNMDNTLHSIVSTAVPAGAAPFTSGTFGKNETFTYTVTEAGDYTYQCGVHTSMLGAFTATITTPVVKPTLILEALYPNPASASIHIESPKSIKSIDIYSETGVLVKTLAFTSASVDVPIGELNKGAYLLRITSEDGMFDTRRIIKEGHHHHHH
soluble on expression in E. coli: soluble

FAEDPSPYVLLDRDLTMIWANAAYLRATGLARDEVVGRRMFDVFPAEAESIPDQMLRASLRRAVEQGRPDHLPLIPYPIRNQDGRMEERFWSATNTPIKDAEGHVEFILQNTNDIT
soluble on expression in E. coli: not soluble

MNSPLAPVGVFDSGVGGLTVARAIIDQLPDEDIVYVGDTGNGPYGPLTIPEIRAHALAIGDDLVGRGVKALVIACNSASSACLRDARERYQVPVVEVILPAVRRAVAATRNGRIGVIGTRATITSHAYQDAFAAARDTEITAVACPRFVDFVERGVTSGRQVLGLAQGYLEPLQRAEVDTLVLGCTHYPLLSGLIQLAMGENVTLVSSAEETAKEVVRVLTEIDLLRPHDAPPATRIFEATGDPEAFTKLAARFLGPVLGGVQPVHPSRIH
soluble on expression in E. coli: not soluble

MFGKQLFEEVGSKISETIANSPAKDVEKNIKAMLGGAFNRMDLVTREEFDIQQQVLIKTRTKLAALEARLEKLEAAQNPERAALEAAEAAAE
soluble on expression in E. coli: not soluble

AKIGLFFGSNTGKTRKVAKSIKKRFDDETMSDALNVNRVSAEDFAQYQFLILGTPTLGEGELPGLSSDAENESWEEFLPKIEGLDFSGKTVALFGLGDQVGYPENYLDALGELYSFFKDRGAKIVGSWSTDGYEFESSEAVVDGKFVGLALDLDNQSGKTDERVAAWLAQIAPEFGLSL
soluble on expression in E. coli: soluble

MTGNLVTKNSLTPDVRNGIDFKIADLSLADFGRKELRIAEHEMPGLMSLRREYAEVQPLKGARISGSLHMTVQTAVLIETLTALGAEVRWASCNIFSTQDHAAAAVVVGPHGTPDEPKGVPVFAWKGETLEEYWWAAEQMLTWPDPDKPANMILDDGGDATMLVLRGMQYEKAGVVPPAEEDDPAEWKVFLNLLRTRFETDKDKWTKIAESVKGVTEETTTGVLRLYQFAAAGDLAFPAINVNDSVTKSKFDNKYGTRHSLIDGINRGTDALIGGKKVLICGYGDVGKGCAEAMKGQGARVSVTEIDPINALQAMMEGFDVVTVEEAIGDADIVVTATGNKDIIMLEHIKAMKDHAILGNIGHFDNEIDMAGLERSGATRVNVKPQVDLWTFGDTGRSIIVLSEGRLLNLGNATGHPSFVMSNSFANQTIAQIELWTKNDEYDNEVYRLPKHLDEKVARIHVEALGGHLTKLTKEQAEYLGVDVEGPYKPDHYRY
soluble on expression in E. coli: soluble

MGSDKIHHHHHHMEFLIYSLPEEVLREEMLGNFSVALKLIDDFLKKDLPLLQRERLIYEKERIERLLEDYPFTEKEAMEKMREMFEGFSEGEFQYLMNEGVLDYIVVEGEKRFERRFFHNLAFVRSEYRERLRKDERSEKARRILHERLERLIKGEDPKRYRIRARITLKLKETSSKHRVWLPFPKESLQIESVKLLRTSHKSYYISPNDVPQRTIYFEGEDSTFFVEFEYIVREWVNHVDPERVSEKVAGFEEFLKEEPPHIVFTPKLRWLTQTVVGSEVNPYLKAKRIYDWITLNVRYSYVKPYALYENITDFVVNNLKGDCGFQALLFITMCRIAGVPARWQSGWYINPIFGSPHDWALFYVEPYGWLPADLSFGGARRDNESFRSFYFGNLDGFRMVANDGFMKDFDPKTRFVRSDPTDNQVGEAESEEKRLPFESTIEVISFEEV
soluble on expression in E. coli: not soluble

MDPLSRDENYIQRLTPEMWREIKAASPEVTAEMLDDLKHGNTYYTGVETDKGVLIFSRDIIGEGQFSDYMYKYIENDFFASEFVLKSLAVHELRGWPSLMEGKLNRCHNRFGWWGDGETIRRAFQDRSVLKNVTDSETYDFTPPPHGRTITG
soluble on expression in E. coli: not soluble

MSLKALINGTIYTSFNPLKKVSGLVISHGKVIYAGDSEVAKKIVELSGGEIVDLKGKYVMPAFFDSHLHLDELGMSLEMVDLRGAKSIEELIQRLKRGKGRIIFGFGWDQDELGEWPTRKELNAIDKPVFIYRKCFHVAVANDKMLELLNLTPSKDFDEDTGIIKEKSLEEARKVINERVLTVEDYVYYIKRAQEHLLDLGVKSVSFMSVNEKALRALFYLEREGKLSINVFAYVTPEVLDKLESIGLGRFQGNRLTIAGVKLFTDGSLGARTALLSKPYSDDPSTSGQLVMEREELIRITEKARSLGLDVAIHAIGDKALDVALDVFETTGFPGRIEHASLVRDDQLERVKNLKVRLSVQPHFIISDWWIVERVGEERVKWVYRFKDLMKVAELGFSTDSPIEPADPWLTVDAAVNRGKGKVKLYELTKDQALDIKDALHSYTYGSARVSLASDIGKLEPGFKAEYIILDRDPLVVKEGHHHHHH
soluble on expression in E. coli: soluble

MSLKFSAKLVDDPSIEKSSSAIRLMCLSDTHGVHNNINKNTIFPADILLFAGDMTLFGNPEHAESFKNFITSLPVQHKVIISGNLDLPFDLKNYSHFTEWFSKFSYKNGPESIKTTFTEDQDIIYLEHQAVTIENVKIFGSPFTPAFGDFGFPTTKDTASKLWEQVPEDTDVILCHGPPHNICDMTSTGFHAGCPELRKSVERVKPAAVVFGHIHEAHGNTMIGNTLCCNVAIVNSNRDVAYGPTYIDLIQEGHHHHHH
soluble on expression in E. coli: soluble

MSLSRLVVVSNRIAPPDEHAASAGGLAVGILGALKAAGGLWFGWSGETGNEDQPLKKVKKGNITWASFNLSEQDLDEYYNQFSNAVLWPAFHYRLDLVQFQRPAWDGYLRVNALLADKLLPLLQDDDIIWIHDYHLLPFAHELRKRGVNNRIGFFLHIPFPTPEIFNALPTYDTLLEQLCDYDLLGFQTENDRLAFLDCLSNLTRVTTRSAKSHTAWGKAFRTEVYPIGIEPKEIAKQAAGPLPPKLAQLKAELKNVQNIFSVERLDYSKGLPERFLAYEALLEKYPQHHGKIRYTQIAPTSRGDVQAYQDIRHQLENEAGRINGKYGQLGWTPLYYLNQHFDRKLLMKIFRYSDVGLVTPLRDGMNLVAKEYVAAQDPANPGVLVLSQFAGAANELTSALIVNPYDRDEVAAALDRALTMSLAERISRHAEMLDVIVKNDINHWQECFISDLKQIVPRSAESQQRDKVATFPKLAEGGSHHHHHH
soluble on expression in E. coli: soluble
